The supplement of paper PMC12458215
± gives the uncertainty stated by the source.

Test system: HEK293T
Test: plasma membrane surface immunostaining intensity (anti-HA, deep receptor scanning) (arbitrary fluorescence units); higher = higher plasma membrane expression
Settings: GPCR class: A

| Sequence | plasma membrane surface immunostaining intensity |
| --- | --- |
| MPANFTEGSFDSSGTGQTLDSSPVACTETVTFTEVVEGKEWGSFYYSFKTEQLITLWVLFVFTIVGNSVVLFSTWRRKKKSRMTFFVTQLAITDSFTGLVNILTDINWRFTGDFTAPDLVCRVVRYLQVVLLYASTYVLVSLSIDRYHAIVYPMKFLQGEKQARVLIVIAWSLSFLFSIPTLIIFGKRTLSNGEVQCWALWPDDSYWTPYMTIVAFLVYFIPLTIISIMYGIVIRTIWIKSKTYETVISNCSDGKLCSSYNRGLISKAKIKAIKYSIIIILAFICCWSPYFLFDILDNFNLLPDTQERFYASVIIQNLPALNSAINPLIYCVFSSSISFPCREQRSQDSRMTFRERTERHEMQILSKPEFI [NPSR1] | 457 ± 42 |
| MITLNNQDQPVPFNSSHPDEYKIAALVFYSCIFIIGLFVNITALWVFSCTTKKRTTVTIYMMNVALVDLIFIMTLPFRMFYYAKDEWPFGEYFCQILGALTVFYPSIALWLLAFISADRYMAIVQPKYAKELKNTCKAVLACVGVWIMTLTTTTPLLLLYKDPDKDSTPATCLKISDIIYLKAVNVLNLTRLTFFFLIPLFIMIGCYLVIIHNLLHGRTSKLKPKVKEKSIRIIITLLVQVLVCFMPFHICFAFLMLGTGENSYNPWGAFTTFLMNLSTCLDVILYYIVSKQFQARVISVMLYRNYLRSMRRKSFRSGSLRSLSNINSEML [GPR18] | 360 ± 120 |
| MSGESMNFSDVFDSSEDYFVSVNTSYYSVDSEMLLCSLQEVRQFSRLFVPIAYSLICVFGLLGNILVVITFAFYKKARSMTDVYLLNMAIADILFVLTLPFWAVSHATGAWVFSNATCKLLKGIYAINFNCGMLLLTCISMDRYIAIVQATKSFRLRSRTLPRSKIICLVVWGLSVIISSSTFVFNQKYNTQGSDVCEPKYQTVSEPIRWKLLMLGLELLFGFFIPLMFMIFCYTFIVKTLVQAQNSKRHKAIRVIIAVVLVFLACQIPHNMVLLVTAANLGKMNRSCQSEKLIGYTKTVTEVLAFLHCCLNPVLYAFIGQKFRNYFLKILKDLWCVRRKYKSSGFSCAGRYSENISRQTSETADNDNASSFTM [CCR6] | 418 ± 33 |
| MSVCYRPPGNETLLSWKTSRATGTAFLLLAALLGLPGNGFVVWSLAGWRPARGRPLAATLVLHLALADGAVLLLTPLFVAFLTRQAWPLGQAGCKAVYYVCALSMYASVLLTGLLSLQRCLAVTRPFLAPRLRSPALARRLLLAVWLAALLLAVPAAVYRHLWRDRVCQLCHPSPVHAAAHLSLETLTAFVLPFGLMLGCYSVTLARLRGARWGSGRHGARVGRLVSAIVLAFGLLWAPYHAVNLLQAVAALAPPEGALAKLGGAGQAARAGTTALAFFSSSVNPVLYVFTAGDLLPRAGPRFLTRLFEGSGEARGGGRSREGTMELRTTPQLKVVGQGRGNGDPGGGMEKDGPEWDL [LTB4R2] | 4310 ± 330 |
| MPNNSTALSLANVTYITMEIFIGLCAIVGNVLVICVVKLNPSLQTTTFYFIVSLALADIAVGVLVMPLAIVVSLGITIHFYSCLFMTCLLLIFTHASIMSLLAIAVDRYLRVKLTVRYKRVTTHRRIWLALGLCWLVSFLVGLTPMFGWNMKLTSEYHRNVTFLSCQFVSVMRMDYMVYFSFLTWIFIPLVVMCAIYLDIFYIIRNKLSLNLSNSKETGAFYGREFKTAKSLFLVLFLFALSWLPLSIINCIIYFNGEVPQLVLYMGILLSHANSMMNPIVYAYKIKKFKETYLLILKACVVCHPSDSLDTSIEKNSE [ADORA3] | 5830 ± 110 |
| MEGDSYHNATTVNGTPVNHQPLERHRLWEVITIAAVTAVVSLITIVGNVLVMISFKVNSQLKTVNNYYLLSLACADLIIGIFSMNLYTTYILMGRWALGSLACDLWLALDYVASNASVMNLLVISFDRYFSITRPLTYRAKRTPKRAGIMIGLAWLISFILWAPAILCWQYLVGKRTVPLDECQIQFLSEPTITFGTAIAAFYIPVSVMTILYCRIYRETEKRTKDLADLQGSDSVTKAEKRKPAHRALFRSCLRCPRPTLAQRERNQASWSSSRRSTSTTGKPSQATGPSANWAKAEQLTTCSSYPSSEDEDKPATDPVLQVVYKSQGKESPGEEFSAEETEETFVKAETEKSDYDTPNYLLSPAAAHRPKSQKCVAYKFRLVVKADGNQETNNGCHKVKIMPCPFPVAKEPSTKGLNPNPSHQMTKRKRVVLVKERKAAQTLSAILLAFIITWTPYNIMVLVSTFCDKCVPVTLWHLGYWLCYVNSTVNPICYALCNRTFRKTFKMLLLCRWKKKKVEEKLYWQGNSKLP [CHRM5] | 1470 ± 190 |

Same assay, conditions: GPCR class: A (Olfactory)

| Sequence | plasma membrane surface immunostaining intensity |
| --- | --- |
| MRRNCTLVTEFILLGLTSRRELQILLFTLFLAIYMVTVAGNLGMIVLIQANAWLHMPMYFFLSHLSFVDLCFSSNVTPKMLEIFLSEKKSISYPACLVQCYLFIALVHVEIYILAVMAFDRYMAICNPLLYGSRMSKSVCSFLITVPYVYGALTGLMETMWTYNLAFCGPNEINHFYCADPPLIKLACSDTYNKELSMFIVAGWNLSFSLFIICISYLYIFPAILKIRSTEGRQKAFSTCGSHLTAVTIFYATLFFMYLRPPSKESVEQGKMVAVFYTTVIPMLNLIIYSLRNKNVKEALIKELSMKIYFS [OR5M8] | 115 ± 18 |
| MSNASLLTAFILMGLPHAPALDAPLFGVFLVVYVLTVLGNLLILLVIRVDSHLHTTMYYFLTNLSFIDMWFSTVTVPKLLMTLVFPSGRAISFHSCMAQLYFFHFLGGTECFLYRVMSCDRYLAISYPLRYTSMMTGRSCTLLATSTWLSGSLHSAVQAILTFHLPYCGPNWIQHYLCDAPPILKLACADTSAIETVIFVTVGIVASGCFVLIVLSYVSIVCSILRIRTSEGKHRAFQTCASHCIVVLCFFGPGLFIYLRPGSRKAVDGVVAVFYTVLTPLLNPVVYTLRNKEVKKALLKLKDKVAHSQSK [OR10G8] | 114 ± 4.5 |
| MGTDNQTWVSEFILLGLSSDWDTRVSLFVLFLVMYVVTVLGNCLIVLLIRLDSRLHTPMYFFLTNLSLVDVSYATSVVPQLLAHFLAEHKAIPFQSCAAQLFFSLALGGIEFVLLAVMAYDRYVAVCDALRYSAIMHGGLCARLAITSWVSGFISSPVQTAITFQLPMCRNKFIDHISCELLAVVRLACVDTSSNEVTIMVSSIVLLMTPFCLVLLSYIQIISTILKIQSREGRKKAFHTCASHLTVVALCYGVAIFTYIQPHSSPSVLQEKLFSVFYAILTPMLNPMIYSLRNKEVKGAWQKLLWKFSGLTSKLAT [OR2F1] | 181 ± 74 |
| MEGNQTWITDITLLGFQVGPALAILLCGLFSVFYTLTLLGNGVIFGIICLDSKLHTPMYFFLSHLAIIDMSYASNNVPKMLANLMNQKRTISFVPCIMQTFLYLAFAVTECLILVVMSYDRYVAICHPFQYTVIMSWRVCTILVLTSWSCGFALSLVHEILLLRLPFCGPRDVNHLFCEILSVLKLACADTWVNQVVIFATCVFVLVGPLSLILVSYMHILGAILKIQTKEGRIKAFSTCSSHLCVVGLFFGIAMVVYMVPDSNQREEQEKMLSLFHSVFNPMLNPLIYSLRNAQLKGALHRALQRKRSMRTVYGLCL [OR2A2] | 129 ± 17 |
| MDGTNGSTQTHFILLGFSDRPHLERILFVVILIAYLLTLVGNTTIILVSRLDPHLHTPMYFFLAHLSFLDLSFTTSSIPQLLYNLNGCDKTISYMGCAIQLFLFLGLGGVECLLLAVMAYDRCVAICKPLHYMVIMNPRLCRGLVSVTWGCGVANSLAMSPVTLRLPRCGHHEVDHFLREMPALIRMACVSTVAIEGTVFVLAVGVVLSPLVFILLSYSYIVRAVLQIRSASGRQKAFGTCGSHLTVVSLFYGNIIYMYMQPGASSSQDQGMFLMLFYNIVTPLLNPLIYTLRNREVKGALGRLLLGKRELGKE [OR2W3] | 129 ± 7.6 |
| MKSDNHSFLGDSPKAFILLGVSDRPWLELPLFVVLLLSYVLAMLGNVAIILASRVDPQLHSPMYIFLSHLSFLDLCYTTTTVPQMLVNMGSSQKTISYGGCTVQYAVFHWLGCTECIVLAAMALDRYVAICKPLHYAVLMHRALCQQLVALAWLSGFGNSFVQVVLTVQLPFCGRQVLNNFFCEVPAVIKLSCADTAVNDTILAVLVAFFVLVPLALILLSYGFIARAVLRIQSSKGRHKAFGTCSSHLMIVSLFYLPAIYMYLQPPSSYSQEQGKFISLFYSIITPTLNPFTYTLRNKDMKGALRRLLARIWRLCG [OR2B11] | 238 ± 84 |
| MENVTTMNEFLLLGLTGVQELQPFFFGIFLIIYLINLIGNGSILVMVVLEPQLHSPMYFFLGNLSCLDISYSSVTLPKLLVNLVCSRRAISFLGCITQLHFFHFLGSTEAILLAIMAFDRFVAICNPLRYTVIMNPQVCILLAAAAWLISFFYALMHSVMTAHLSFCGSQKLNHFFYDVKPLLELACSDTLLNQWLLSIVTGSISMGAFFLTLLSCFYVIGFLLFKNRSCRILHKALSTCASHFMVVCLFYGPVGFTYIRPASATSMIQDRIMAIMYSAVTPVLNPLIYTLRNKEVMMALKKIFGRKLFKDWQQHH [OR12D3] | 148 ± 34 |

Same assay, conditions: GPCR class: B

| Sequence | plasma membrane surface immunostaining intensity |
| --- | --- |
| MDHCGALFLCLCLLTLQNATTETWEELLSYMENMQVSRGRSSVFSSRQLHQLEQMLLNTSFPGYNLTLQTPTIQSLAFKLSCDFSGLSLTSATLKRVPQAGGQHARGQHAMQFPAELTRDACKTRPRELRLICIYFSNTHFFKDENNSSLLNNYVLGAQLSHGHVNNLRDPVNISFWHNQSLEGYTLTCVFWKEGARKQPWGGWSPEGCRTEQPSHSQVLCRCNHLTYFAVLMQLSPALVPAELLAPLTYISLVGCSISIVASLITVLLHFHFRKQSDSLTRIHMNLHASVLLLNIAFLLSPAFAMSPVPGSACTALAAALHYALLSCLTWMAIEGFNLYLLLGRVYNIYIRRYVFKLGVLGWGAPALLVLLSLSVKSSVYGPCTIPVFDSWENGTGFQNMSICWVRSPVVHSVLVMGYGGLTSLFNLVVLAWALWTLRRLRERADAPSVRACHDTVTVLGLTVLLGTTWALAFFSFGVFLLPQLFLFTILNSLYGFFLFLWFCSQRCRSEAEAKAQIEAFSSSQTTQ [ADGRG5] | 512 ± 20 |

Same assay, conditions: GPCR class: Taste

| Sequence | plasma membrane surface immunostaining intensity |
| --- | --- |
| MATELDKIFLILAIAEFIISMLGNVFIGLVNCSEGIKNQKVFSADFILTCLAISTIGQLLVILFDSFLVGLASHLYTTYRLGKTVIMLWHMTNHLTTWLATCLSIFYFFKIAHFPHSLFLWLRWRMNGMIVMLLILSLFLLIFDSLVLEIFIDISLNIIDKSNLTLYLDESKTLYDKLSILKTLLSLTSFIPFSLFLTSLLFLFLSLVRHTRNLKLSSLGSRDSSTEAHRRAMKMVMSFLFLFIVHFFSLQVANWIFFMLWNNKCIKFVMLALNAFPSCHSFILILGNSKLQQTAVRLLWHLRNYTKTPNPLPL [TAS2R42] | 114 ± 7.7 |
| MGPRAKTISSLFFLLWVLAEPAENSDFYLPGDYLLGGLFSLHANMKGIVHLNFLQVPMCKEYEVKVIGYNLMQAMRFAVEEINNDSSLLPGVLLGYEIVDVCYISNNVQPVLYFLAHEDNLLPIQEDYSNYISRVVAVIGPDNSESVMTVANFLSLFLLPQITYSAISDELRDKVRFPALLRTTPSADHHIEAMVQLMLHFRWNWIIVLVSSDTYGRDNGQLLGERVARRDICIAFQETLPTLQPNQNMTSEERQRLVTIVDKLQQSTARVVVVFSPDLTLYHFFNEVLRQNFTGAVWIASESWAIDPVLHNLTELRHLGTFLGITIQSVPIPGFSEFREWGPQAGPPPLSRTSQSYTCNQECDNCLNATLSFNTILRLSGERVVYSVYSAVYAVAHALHSLLGCDKSTCTKRVVYPWQLLEEIWKVNFTLLDHQIFFDPQGDVALHLEIVQWQWDRSQNPFQSVASYYPLQRQLKNIQDISWHTINNTIPMSMCSKRCQSGQKKKPVGIHVCCFECIDCLPGTFLNHTEDEYECQACPNNEWSYQSETSCFKRQLVFLEWHEAPTIAVALLAALGFLSTLAILVIFWRHFQTPIVRSAGGPMCFLMLTLLLVAYMVVPVYVGPPKVSTCLCRQALFPLCFTICISCIAVRSFQIVCAFKMASRFPRAYSYWVRYQGPYVSMAFITVLKMVIVVIGMLATGLSPTTRTDPDDPKITIVSCNPNYRNSLLFNTSLDLLLSVVGFSFAYMGKELPTNYNEAKFITLSMTFYFTSSVSLCTFMSAYSGVLVTIVDLLVTVLNLLAISLGYFGPKCYMILFYPERNTPAYFNSMIQGYTMRRD [TAS1R2] | 229 ± 23 |
